Assay results as given in the Immune Epitope Database (IEDB).

Legend:
HLA-A*02:06 = assay: IEDB peptide-MHC binding, purified MHC/competitive/radioactivity; filed as Kd, often an IC50 or EC50 that approximates it; ≥ and ≤ were set here for values at or beyond the usual limits of such assays
HLA-A*02:03 = assay: as above
HLA-A*02:02 = assay: as above
HLA-A*11:01 = assay: as above
HLA-A*68:01 = assay: as above
HLA-A*31:01 = assay: as above
HLA-A*03:01 = assay: as above
HLA-A*33:01 = assay: as above
HLA-A*02:01 = assay: IEDB peptide-MHC binding, purified MHC/direct/fluorescence; filed as Kd, often an IC50 or EC50 that approximates it; ≥ and ≤ were set here for values at or beyond the usual limits of such assays; settings: source organism: Mammarenavirus lassaense
[1] = source organism: Vaccinia virus WR
[2] = source organism: SARS coronavirus Tor2

| Sequence | Kd (HLA-A*02:06; [1]) | Kd (HLA-A*02:03; [1]) | Kd (HLA-A*02:02; [1]) | also measured |
| --- | --- | --- | --- | --- |
| NVQSLIKFI | 10500 nM | 6020 nM | 12900 nM | – |
| NVSRVVECLT | ≥ 10000 nM | 14300 nM | 4660 nM | – |
| PLHIVCSKTV | ≥ 27000 nM | 5270 nM | ≥ 34500 nM | – |
| PMSRLFMDEI | 4370 nM | 726 nM | 1930 nM | – |
| PTIEDDKIVT | ≥ 69800 nM | ≥ 20600 nM | 13800 nM | – |
| QIMECSRML | 948 nM | 1380 nM | 620 nM | – |
| QQNNSFIIST | 5710 nM | 5040 nM | 7000 nM | – |
| RIITILQDIV | 94.8 nM | 209 nM | 595 nM | – |
| RLRYNLCKYL | 15700 nM | 0.304 nM | 261 nM | – |
| SILNNPVDT | 14200 nM | ≥ 30600 nM | ≥ 47100 nM | – |
| SIVCIVAAV | 3.54 nM | 2.82 nM | 3.91 nM | – |
| SLGLILLKMV | – | – | – | Kd (HLA-A*02:03; source organism: Dengue virus 4 Philippines/H241/1956): 58.2 nM |
| SLIGLTARA | – | – | – | Kd (HLA-A*02:03; source organism: Dengue virus 1 Brazil/97-11/1997): 4.13 nM |
| SLSNLDFRL | 1380 nM | 1760 nM | 1310 nM | – |
| SQAKKPEVRI | 5860 nM | 2370 nM | 10700 nM | – |
| SVDIETAIRA | 1030 nM | 7620 nM | 2830 nM | – |
| TIAHINTLI | 571 nM | 20 nM | 21.4 nM | – |
| TILDDNLYK | – | – | – | Kd (HLA-A*11:01; [1]): 14.8 nM; Kd (HLA-A*68:01; [1]): 1180 nM; Kd (HLA-A*31:01; [1]): ≥ 50300 nM; Kd (HLA-A*03:01; [1]): 390 nM; Kd (HLA-A*33:01; [1]): ≥ 77700 nM |
| TINVNSLAL | 2180 nM | 1540 nM | 1980 nM | – |
| TIPIGMQFDK | – | – | – | Kd (HLA-A*11:01; [1]): 4.02 nM; Kd (HLA-A*68:01; [1]): 38.1 nM; Kd (HLA-A*31:01; [1]): 17400 nM; Kd (HLA-A*03:01; [1]): 6040 nM; Kd (HLA-A*33:01; [1]): ≥ 70000 nM |
| TLDTMDDMKK | – | – | – | Kd (HLA-A*11:01; [1]): 287 nM; Kd (HLA-A*68:01; [1]): 2150 nM; Kd (HLA-A*31:01; [1]): ≥ 30200 nM; Kd (HLA-A*03:01; [1]): 762 nM; Kd (HLA-A*33:01; [1]): ≥ 70000 nM |
| TLKDAMLQL | – | – | – | Kd (HLA-A*02:01): 116 nM |

| Sequence | Kd (HLA-A*02:06; [1]) | Kd (HLA-A*02:03; [1]) | Kd (HLA-A*02:02; [1]) | also measured |
| --- | --- | --- | --- | --- |
| TLLCVLAALV | – | – | – | Kd (HLA-A*02:06; [2]): 64.6 nM; Kd (HLA-A*02:03; [2]): 77.4 nM; Kd (HLA-A*02:02; [2]): 4.61 nM |
| TLQGPPGTGK | – | – | – | Kd (HLA-A*11:01; [2]): 264 nM; Kd (HLA-A*68:01; [2]): 225 nM; Kd (HLA-A*31:01; [2]): 3290 nM; Kd (HLA-A*03:01; [2]): 282 nM; Kd (HLA-A*33:01; [2]): 8190 nM |
| TQFNFNGHTY | – | – | – | Kd (HLA-A*11:01; [1]): 965 nM; Kd (HLA-A*68:01; [1]): 266 nM; Kd (HLA-A*31:01; [1]): 4060 nM; Kd (HLA-A*03:01; [1]): 218 nM; Kd (HLA-A*33:01; [1]): 16100 nM |
| TSMMVILPDK | – | – | – | Kd (HLA-A*11:01; [1]): 1.8 nM; Kd (HLA-A*68:01; [1]): 27 nM; Kd (HLA-A*31:01; [1]): 455 nM; Kd (HLA-A*03:01; [1]): 141 nM; Kd (HLA-A*33:01; [1]): ≥ 23000 nM |
| TVGMSIVCIV | 200 nM | 468 nM | 528 nM | – |
| VFAYVGCYNK | – | – | – | Kd (HLA-A*11:01; [2]): 350 nM; Kd (HLA-A*68:01; [2]): 65.3 nM; Kd (HLA-A*31:01; [2]): 184 nM; Kd (HLA-A*03:01; [2]): 1530 nM; Kd (HLA-A*33:01; [2]): 340 nM |
| VIIMAINVFT | 674 nM | 820 nM | 320 nM | – |
| VIPFDDIVRT | 18200 nM | ≥ 50300 nM | ≥ 62700 nM | – |
| VLNRHAITMY | – | – | – | Kd (HLA-A*11:01; [1]): 966 nM; Kd (HLA-A*68:01; [1]): 16800 nM; Kd (HLA-A*31:01; [1]): ≥ 70000 nM; Kd (HLA-A*03:01; [1]): 94.4 nM; Kd (HLA-A*33:01; [1]): ≥ 70000 nM |
| VMDTLNGIMM | 403 nM | 5160 nM | 7.64 nM | – |
| VQYENLKYTV | – | – | – | Kd (HLA-A*02:06; source organism: Dengue virus 3 Martinique/1243/1999): 61 nM |
| WLRAKRKPAM | 11900 nM | ≥ 20100 nM | 4670 nM | – |
| WLSMTDEMR | – | – | – | Kd (HLA-A*11:01; [1]): ≥ 46300 nM; Kd (HLA-A*68:01; [1]): 34.4 nM; Kd (HLA-A*31:01; [1]): 1790 nM; Kd (HLA-A*03:01; [1]): ≥ 78000 nM; Kd (HLA-A*33:01; [1]): 6280 nM |
| YIALCKVTV | 18.8 nM | 24 nM | 12.2 nM | – |
| YIFPGDKTSY | – | – | – | Kd (HLA-A*11:01; [1]): 1260 nM; Kd (HLA-A*68:01; [1]): 40.7 nM; Kd (HLA-A*31:01; [1]): 18700 nM; Kd (HLA-A*03:01; [1]): 258 nM; Kd (HLA-A*33:01; [1]): ≥ 70000 nM |
| YLSTFNMWR | – | – | – | Kd (HLA-A*11:01; [1]): 666 nM; Kd (HLA-A*68:01; [1]): 3.42 nM; Kd (HLA-A*31:01; [1]): 64.7 nM; Kd (HLA-A*03:01; [1]): 201 nM; Kd (HLA-A*33:01; [1]): 94.5 nM |
| YTFAISYCRA | 37.4 nM | 37.6 nM | 325 nM | – |
| YVGDTSMMVI | 324 nM | 220 nM | 408 nM | – |
| YVKSPKFSK | – | – | – | Kd (HLA-A*11:01; [2]): 259 nM; Kd (HLA-A*68:01; [2]): 65.5 nM; Kd (HLA-A*31:01; [2]): 2320 nM; Kd (HLA-A*03:01; [2]): 6980 nM; Kd (HLA-A*33:01; [2]): 7520 nM |
| YVSPTEMVDV | 5.16 nM | 49.8 nM | 63.3 nM | – |
| YVVIVENDNV | 59.7 nM | 11000 nM | 2330 nM | – |
